The source of these data is patent US20240181068A1, “SELECTIVE NEUTRAL PH INHIBITOR OF CATHEPSIN B” (The Regents of the University of California, priority 2021, published 2024).

The target in assay [1] is T1, cathepsin B in human neuroblastoma cells (SHSY5Y) (Homo sapiens, UniProt P07858).
T1 construct: endogenous in cells; host or cells: SH-SY5Y human neuroblastoma cells
The assay can be described thus: Neuroblastoma cells incubated with inhibitors, then cathepsin B assay. In kind it is cell-based. The following applies: cells incubated with 50 μM inhibitor for 6 hrs, washed, homogenate assayed with Z-Arg-Arg-AMC. The procedure: Cathepsin B in human neuroblastoma cells treated with inhibitors. Neuroblastoma cells (human SHSY5Y) were grown in media consisting of 50% MEMalpha, 50% F12-K, 10% heat-inactivated FBS at 37° C. in an atmosphere of 95% air and 5% CO2. Firstly, cell homogenates were prepared by collection of cells in 0.32 M sucrose and freeze-thawing. Secondly, cells were incubated with Z-Arg-Lys-AOMK or CA-074Me for 6 hours at 37° C., and washed 3 times in phosphate-buffered saline and homogenates were prepared in 0.32 M sucrose with freeze-thawing. CA-074Me is a methyl ester form of the active CA-074 selective inhibitor of cathepsin B (70); CA-074Me penetrates the cell and is converted by intracellular esterases to CA-074.
Cathepsin B activity in the homogenates were monitored with Z-Arg-Arg-AMC substrate (60 μM) with buffer conditions of 40 mM citrate-phosphate, pH 5.5, 5 mM DTT, 1 mM EDTA, 100 mM NaCl, and 1.2% DMSO, followed by incubation at 37° C. for 30 minutes and reading of AMC fluorescence. CA-074-senstive activity was monitored to indicate cathepsin B activity, since CA-074 is a selective inhibitor of this enzyme (70). Protein content was measured in homogenates with the DC protein assay kit. Cathepsin B specific activity was calculated as nmol AMC/μg/min, and reported as the mean±SD (with analyses for statistical significance, p<0.05 by student's t-test).

Assay [2] addresses T2, cathepsin L (Homo sapiens, UniProt P07711).
T2 construct: purchased R&D Systems 952-CY-010
As to the kind of experiment: Specificity of peptide-AMC substrates: cathepsin L. The class given is biochemical. Particulars: pH 4.6.

For assay [3], the target named is T3, cathepsin V (Homo sapiens, UniProt O60911).
T3 construct: purchased R&D Systems 1080-CY-010
The assay can be described thus: Specificity of peptide-AMC substrates: cathepsin V. In kind it is biochemical. The following applies: pH 4.6.

Assay [4] concerns the target Recombinant human cathepsin B (R&D #953-CY-010) (human) (UniProt P07858). The assay can be described thus: cell-based or functional assay.
For assay [5] the target is unchanged. The assay can be described thus: ratio of KI values, fluorogenic cathepsin B assay.
Assay [6] shares this target. The assay can be described thus: inactivation kinetics, fluorogenic cathepsin B assay with Z-Phe-Arg-AMC, pH 4.6.
The target is the same in assay [7]. The assay can be described thus: inactivation kinetics, fluorogenic cathepsin B assay with Z-Phe-Arg-AMC, pH 7.2.
In assay [8] the target is cathepsin S (R&D #1183-CY-010) (human, UniProt P25774 17-331). As to the kind of experiment: cell-based or functional assay.
Assay [9] concerns the target T4, cathepsin K (Abcam #ab157067) (human, UniProt P43235 115-329, limits assumed).
T4 sequence (looked up): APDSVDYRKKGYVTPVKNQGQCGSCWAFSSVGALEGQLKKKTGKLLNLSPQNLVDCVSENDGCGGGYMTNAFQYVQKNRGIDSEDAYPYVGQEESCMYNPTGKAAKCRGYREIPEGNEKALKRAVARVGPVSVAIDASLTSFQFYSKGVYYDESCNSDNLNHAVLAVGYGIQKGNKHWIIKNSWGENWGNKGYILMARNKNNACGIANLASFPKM
As to the kind of experiment: cell-based or functional assay.

The target of assay [10] is cathepsin C (R&D #1071-CY-010) (human, UniProt P53634 25-463). As to the kind of experiment: cell-based or functional assay.
Assay [11] deals with cathepsin L (R&D #952-CY-010) (human, UniProt P07711 114-333). As to the kind of experiment: cell-based or functional assay.
The target of assay [12] is T5, cathepsin V (R&D #1080-CY-010) (human, UniProt O60911 18-334).
T5 sequence (looked up): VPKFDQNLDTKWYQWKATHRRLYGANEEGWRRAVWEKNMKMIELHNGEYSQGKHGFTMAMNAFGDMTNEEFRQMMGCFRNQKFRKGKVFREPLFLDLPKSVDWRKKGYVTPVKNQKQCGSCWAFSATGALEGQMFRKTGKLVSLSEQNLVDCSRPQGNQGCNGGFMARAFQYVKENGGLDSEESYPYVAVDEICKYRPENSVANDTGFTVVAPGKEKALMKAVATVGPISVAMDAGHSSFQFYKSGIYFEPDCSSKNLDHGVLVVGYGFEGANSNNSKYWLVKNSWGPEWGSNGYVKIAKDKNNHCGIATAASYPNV
As to the kind of experiment: cell-based or functional assay.

Peptide text beside a SMILES is read from it. * marks the point of attachment. AOMK = acyloxymethyl ketone warhead replacing the C-terminal carboxyl; AMC = Cc1cc(=O)oc2cc(N*)ccc12; Cbz = O=C(OCc1ccccc1)*

Chain of cathepsin S (R&D #1183-CY-010) (P25774 17-331 limits assumed): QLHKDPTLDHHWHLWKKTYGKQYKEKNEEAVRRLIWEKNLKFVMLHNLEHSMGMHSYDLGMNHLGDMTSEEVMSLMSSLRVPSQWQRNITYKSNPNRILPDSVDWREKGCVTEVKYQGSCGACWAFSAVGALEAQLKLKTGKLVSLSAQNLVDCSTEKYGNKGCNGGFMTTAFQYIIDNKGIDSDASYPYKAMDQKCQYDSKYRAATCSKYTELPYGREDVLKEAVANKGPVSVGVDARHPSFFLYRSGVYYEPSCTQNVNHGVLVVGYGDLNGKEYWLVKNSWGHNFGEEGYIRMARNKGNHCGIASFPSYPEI
Chain of cathepsin C (R&D #1071-CY-010) (P53634 25-463 limits assumed): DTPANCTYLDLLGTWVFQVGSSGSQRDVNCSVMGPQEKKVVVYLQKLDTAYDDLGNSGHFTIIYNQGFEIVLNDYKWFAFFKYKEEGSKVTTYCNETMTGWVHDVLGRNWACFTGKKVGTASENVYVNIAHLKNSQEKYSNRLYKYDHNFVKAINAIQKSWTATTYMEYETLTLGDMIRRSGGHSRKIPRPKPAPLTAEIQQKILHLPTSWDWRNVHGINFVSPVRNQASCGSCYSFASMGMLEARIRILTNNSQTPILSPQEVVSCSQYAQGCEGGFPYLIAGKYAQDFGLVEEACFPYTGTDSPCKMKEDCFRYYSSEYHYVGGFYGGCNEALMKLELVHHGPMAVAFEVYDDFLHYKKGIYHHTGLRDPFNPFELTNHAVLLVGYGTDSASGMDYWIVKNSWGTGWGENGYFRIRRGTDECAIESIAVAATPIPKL
Chain of cathepsin L (R&D #952-CY-010) (P07711 114-333): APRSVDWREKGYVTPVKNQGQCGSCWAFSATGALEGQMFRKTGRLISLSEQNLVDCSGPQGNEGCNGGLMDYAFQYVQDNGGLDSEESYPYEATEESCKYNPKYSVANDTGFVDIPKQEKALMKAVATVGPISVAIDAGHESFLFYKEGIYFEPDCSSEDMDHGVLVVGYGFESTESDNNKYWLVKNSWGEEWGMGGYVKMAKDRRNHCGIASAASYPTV
T2 sequence (P07711 114-333): as above

In the case of `CCCNC(=O)[C@H]1O[C@@H]1C(=O)N[C@H](C(=O)N1CCC[C@H]1C(=O)OC)[C@@H](C)CC` [CA-074Me, reference compound], the “inhibition of cellular cathepsin B activity” value in [1] is reported as “completely inhibited”.

For `Cc1cc(=O)oc2cc(NC(=O)C(CCCN=C(N)N)NC(=O)C(Cc3ccccc3)NC(=O)OCc3ccccc3)ccc12` (stereo not drawn) [Z-Phe-Arg-AMC] (Cbz-Phe-Arg-{AMC}; configuration not given here), the “substrate activity for cathepsin L” value in assay [2] was “cleaved”. Also, the “substrate activity for cathepsin V” value in [3] is on record as “cleaved”.

Take Z-Arg-Lys-AOMK (peptide): in assay [4], the IC50 of inhibition of cathepsin B activity (Z-Phe-Arg-AMC substrate, no pre-incubation), pH 4.6 was found to be 1.5 µM; the IC50 of inhibition of cathepsin B activity (Z-Phe-Arg-AMC substrate, no pre-incubation), pH 7.2 was found to be 20 nM; the IC50 of inhibition of cathepsin B activity, pH 6.8 (data not shown) was 22 nM; the IC50 of inhibition of enzyme activity, pH 4.6 is 1.5 µM. In [4], the IC50 of inhibition of enzyme activity, pH 7.2 was determined as 20 nM; the fold greater potency (IC50) for cathepsin B than for cathepsin C, pH 7.2 stood at 43 fold; the fold greater potency (IC50) for cathepsin B than for cathepsin S, pH 7.2 was determined as 110 fold; the fold greater potency (IC50) for cathepsin B than for cathepsin V, pH 7.2 came out at 22 fold. Moreover, in [4], the reduction of cathepsin B activity (Z-Phe-Arg-AMC substrate) by 64 nM inhibitor, pH 4.6 turned out to be 5% and the reduction of cathepsin B activity (Z-Phe-Arg-AMC substrate) by 64 nM inhibitor, pH 7.2 was found to be 93%. Moreover, the fold greater potency (KI) at pH 7.2 compared to pH 4.6 in [5] stood at 115 fold. In addition, the Kinact/KI in assay [6] was found to be 1800 M⁻¹ s⁻¹. The Kinact/KI in assay [7] turned out to be 110000 M⁻¹ s⁻¹.

Consider Z-Glu-Lys-AOMK (peptide), for which, in assay [4], the IC50 of inhibition of cathepsin B activity (Z-Phe-Arg-AMC substrate, no pre-incubation), pH 4.6 turned out to be 1.1 µM; the IC50 of inhibition of cathepsin B activity (Z-Phe-Arg-AMC substrate, no pre-incubation), pH 7.2 came out at 320 nM; the IC50 of inhibition of enzyme activity, pH 4.6 was determined as 1.1 µM; the IC50 of inhibition of enzyme activity, pH 7.2 was determined as 320 nM. Also, in [4], the fold greater potency (IC50) for cathepsin B than for cathepsin C, pH 7.2 is 38 fold. For the same molecule, the fold greater potency (KI) at pH 7.2 compared to pH 4.6 in assay [5] is 3.5 fold. Further, the Kinact/KI in assay [6] was 2000 M⁻¹ s⁻¹. Further, in assay [7], the Kinact/KI was 8200 M⁻¹ s⁻¹.

Turning to Cbz-Glu-Lys-{AOMK} [Z-Glu-Lys-AOMK], in [8], the “% inhibition of enzyme activity at 16,000 nM inhibitor, pH 4.6” value (“% inhibition of enzyme activity … pH 4.6” for short) was determined as 26%; the “% inhibition of enzyme activity at 16,000 nM inhibitor, pH 7.2” value came out at 30%; the “IC50 of inhibition of enzyme activity (Z-Phe-Arg-AMC substrate), pH 4.6” value was > 16 µM; the “IC50 of inhibition of enzyme activity (Z-Phe-Arg-AMC substrate), pH 7.2” value was > 16 µM. Further, in assay [9], the “% inhibition of enzyme activity … pH 4.6” value was 10% and the “IC50 of inhibition of enzyme activity (Z-Phe-Arg-AMC substrate), pH 4.6” value is > 16 µM. In addition, in assay [10], the “IC50 of inhibition of enzyme activity (Gly-Arg-AMC substrate), pH 4.6” value is 8.6 µM and the “IC50 of inhibition of enzyme activity (Gly-Arg-AMC substrate), pH 7.2” value worked out at 12 µM. Further, in [11], the “% inhibition of enzyme activity … pH 4.6” value is 23% and the “IC50 of inhibition of enzyme activity (Z-Phe-Arg-AMC substrate), pH 4.6” value was > 16 µM. In [12], the “% inhibition of enzyme activity at 16,000 nM inhibitor, pH 7.2” value is 10%; the “IC50 of inhibition of enzyme activity (Z-Phe-Arg-AMC substrate), pH 4.6” value worked out at 1.9 µM; the “IC50 of inhibition of enzyme activity (Z-Phe-Arg-AMC substrate), pH 7.2” value is > 16 µM.
